In paper PMC6642148 one finds Kd data, which are given here for one substance.

The target of the test is RAS-binding domain (RBD) of RAF1, RAF1-RBD (52–131) (Homo sapiens) (UniProt P04049). Nature of the test: ITC; GMPPNP-bound KRAS. The conditions noted are these: domain or fragment. In general terms: In ITC the heat of successive injections is recorded.

With “KRAS (2–169), GMPPNP-bound (from UniProt P01116-2 2-169)”, the Kd – broadly, a measure of binding affinity in units of concentration – stood at 217 nM.
